One substance from patent publication US20030138522A1 can be followed below.

This assay has as its target wheat extractable xylanolytic enzymes. Kind of assay: cell-based or functional assay.

On to “purified wheat endogenous xylanase inhibitor”, for which the OD (Xylazyme substrate, xylanase activity; 100 µl xylanolytic extract + 100 µl purified inhibitor; control without inhibitor OD 0.8) is 0.277 OD; the OD (Xylazyme substrate, xylanase activity; 250 µl xylanolytic extract + 100 µl purified inhibitor; control without inhibitor OD 0.867) amounted to 0.275 OD; the OD (Xylazyme substrate, xylanase activity; 500 µl xylanolytic extract + 100 µl purified inhibitor; control without inhibitor OD 1.031) was 0.414 OD.
